# Assay results as given in PMC10821591.
# Target: GAP domain of human Ral GTPase Accelerating Protein α1 (residues 1807-1988) (human) (UniProt Q6GYQ0)
# Test: ITC; MicroCal iTC200, 20 °C; cell: RalGAPα1(GAP) 15 μM; syringe: MAF1 150 μM, 19 injections of 2 μl; 20 mM Hepes pH 7.5, 150 mM NaCl, 1 mM TCEP; one-site model
# GAP domain of human Ral GTPase Accelerating Protein α1 (residues 1807-1988) (human), sequence (Q6GYQ0 1807-1988): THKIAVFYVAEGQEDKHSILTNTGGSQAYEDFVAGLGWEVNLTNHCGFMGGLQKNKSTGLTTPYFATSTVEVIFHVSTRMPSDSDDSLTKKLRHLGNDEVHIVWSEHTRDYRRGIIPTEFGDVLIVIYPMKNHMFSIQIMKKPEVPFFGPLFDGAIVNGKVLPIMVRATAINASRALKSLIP
substance,measurement,value
"MAF1b STL-RKK (MAF1b 173-443, S438R/T439K/L441K) (domain or fragment)",Kd,518 nM
"T. gondii Mitochondrial Association Factor 1b, structured C-terminal domain (residues 173-443) (domain or fragment)",Kd,334 nM
same,dH,-14.6 kcal/mol
same,stoichiometry N,1
